Data as given in IntAct's records for PubMed 20498086.

B1: Nuclear pore complex protein Nup98-Nup96 (Homo sapiens), P52948 (parent)
chain: MFNKSFGTPFGGGTGGFGTTSTFGQNTGFGTTSGGAFGTSAFGSSNNTGGLFGNSQTKPGGLFGTSSFSQPATSTSTGFGFGTSTGTANTLFGTASTGTSLFSSQNNAFAQNKPTGFGNFGTSTSSGGLFGTTNTTSNPFGSTSGSLFGPSSFTAAPTGTTIKFNPPTGTDTMVKAGVSTNISTKHQCITAMKEYESKSLEELRLEDYQANRKGPQNQVGAGTTTGLFGSSPATSSATGLFSSSTTNSGFAYGQNKTAFGTSTTGFGTNPGGLFGQQNQQTTSLFSKPFGQATTTQNTGFSFGNTSTIGQPSTNTMGLFGVTQASQPGGLFGTATNTSTGTAFGTGTGLFGQTNTGFGAVGSTLFGNNKLTTFGSSTTSAPSFGTTSGGLFGNKPTLTLGTNTNTSNFGFGTNTSGNSIFGSKPAPGTLGTGLGAGFGTALGAGQASLFGNNQPKIGGPLGTGAFGAPGFNTTTATLGFGAPQAPVALTDPNASAAQQAVLQQHINSLTYSPFGDSPLFRNPMSDPKKKEERLKPTNPAAQKALTTPTHYKLTPRPATRVRPKALQTTGTAKSHLFDGLDDDEPSLANGAFMPKKSIKKLVLKNLNNSNLFSPVNRDSENLASPSEYPENGERFSFLSKPVDENHQQDGDEDSLVSHFYTNPIAKPIPQTPESAGNKHSNSNSVDDTIVALNMRAALRNGLEGSSEETSFHDESLQDDREEIENNSYHMHPAGIILTKVGYYTIPSMDDLAKITNEKGECIVSDFTIGRKGYGSIYFEGDVNLTNLNLDDIVHIRRKEVVVYLDDNQKPPVGEGLNRKAEVTLDGVWPTDKTSRCLIKSPDRLADINYEGRLEAVSRKQGAQFKEYRPETGSWVFKVSHFSKYGLQDSDEEEEEHPSKTSTKKLKTAPLPPASQTTPLQMALNGKPAPPPQSQSPEVEQLGRVVELDSDMVDITQEPVLDTMLEESMPEDQEPVSASTHIASSLGINPHVLQIMKASLLTDEEDVDMALDQRFSRLPSKADTSQEICSPRLPISASHSSKTRSLVGGLLQSKFTSGAFLSPSVSVQECRTPRAASLMNIPSTSSWSVPPPLTSVFTMPSPAPEVPLKTVGTRRQLGLVPREKSVTYGKGKLLMDMALFMGRSFRVGWGPNWTLANSGEQLNGSHELENHQIADSMEFGFLPNPVAVKPLTESPFKVHLEKLSLRQRKPDEDMKLYQTPLELKLKHSTVHVDELCPLIVPNLGVAVIHDYADWVKEASGDLPEAQIVKHWSLTWTLCEALWGHLKELDSQLNEPREYIQILERRRAFSRWLSCTATPQIEEEVSLTQKNSPVEAVFSYLTGKRISEACSLAQQSGDHRLALLLSQFVGSQSVRELLTMQLVDWHQLQADSFIQDERLRIFALLAGKPVWQLSEKKQINVCSQLDWKRSLAIHLWYLLPPTASISRALSMYEEAFQNTSDSDRYACSPLPSYLEGSGCVIAEEQNSQTPLRDVCFHLLKLYSDRHYDLNQLLEPRSITADPLDYRLSWHLWEVLRALNYTHLSAQCEGVLQASYAGQLESEGLWEWAIFVLLHIDNSGIREKAVRELLTRHCQLLETPESWAKETFLTQKLRVPAKWIHEAKAVRAHMESDKHLEALCLFKAEHWNRCHKLIIRHLASDAIINENYDYLKGFLEDLAPPERSSLIQDWETSGLVYLDYIRVIEMLRHIQQVDCSGNDLEQLHIKVTSLCSRIEQIQCYSAKDRLAQSDMAKRVANLLRVVLSLHHPPDRTSDSTPDPQRVPLRLLAPHIGRLPMPEDYAMDELRSLTQSYLRELAVGSL
partner: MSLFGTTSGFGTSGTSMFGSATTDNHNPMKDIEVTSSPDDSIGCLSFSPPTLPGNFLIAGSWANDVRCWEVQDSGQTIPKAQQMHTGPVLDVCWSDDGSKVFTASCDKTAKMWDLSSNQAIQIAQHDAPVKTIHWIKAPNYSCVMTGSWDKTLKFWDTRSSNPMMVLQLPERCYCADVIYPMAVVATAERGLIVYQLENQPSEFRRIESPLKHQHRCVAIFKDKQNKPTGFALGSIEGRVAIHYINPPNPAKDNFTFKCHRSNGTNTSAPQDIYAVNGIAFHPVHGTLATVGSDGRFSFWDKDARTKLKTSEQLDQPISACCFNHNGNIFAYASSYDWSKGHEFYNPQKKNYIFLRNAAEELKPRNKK

Variants of: B1
Details: with rae1l_human RAE1, P78406

| effect of a mutation on the interaction | Variant |
| --- | --- |
| disrupting interaction | E201K;E202K |
